Test results from the supplement of paper PMC9732359.
± gives the uncertainty stated by the source.

Assay: protein stability index of a GFP-peptide fusion (yeast GPS) (PSI 1-4); higher = more stable; sorted into four equal gates, so the index is relative within each strain
Details: doa10∆
Summary of the method: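 For each peptide, the protein stability index sums the read frequency in every gate after multiplying it by the gate number. Read frequencies came from plasmids that were PCR-amplified from each gate and Illumina-sequenced, with reads assigned to strains by barcodes. The gates were four equal bins of GFP/Cherry fluorescence ratio applied to mid-log yeast in leucine-free medium carrying a pooled library of tiled 17-residue yeast protein peptides fused downstream of GFP on a Cherry-expressing plasmid.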

Sequence | protein stability index
AGILRGYDIFLNVVLDD [SMX2] | 3.14 ± 0.055
AGKADTSIRLEGDELEN [SRB4] | 2.67 ± 0.089
AGLDEDGKGAVYSFDPV [PRE7] | 2.58 ± 0.29
AGQLALDLANSGDESNV [YDL116W/NUP84] | 2.93 ± 0.29
AGRKFKSRRCDDMLYYI [POP4] | 2.96 ± 0.094
AGVVQDIGSDPTLPRSD [RPB9] | 2.83 ± 0.078
AHAQHQPSQQPQQAQQQ [GAL11] | 2.92 ± 0.041
AHELQSEDVSRDHEKDT [YIL149C/MLP2] | 2.38 ± 0.085
AHIAKNLINLSIGASIA [YCS4] | 1.34 ± 0.068
AHTASVGVVFGSGAANE [COR1] | 3.23 ± 0.12
AIIVAGVQSNGDQFLRY [PRE4] | 2.74 ± 0.095
AIPLLKVLRKFRVQSQS [NUT1] | 1.69 ± 0.085
AIPNGIHLQRFDEGTTL [RPO21] | 2.29 ± 0.064
AIQLDYSTANEYIIAAI [RPN3] | 2.24 ± 0.058
AIVPGQSISGTLELSAQ [SWP82] | 3.43 ± 0.094
AIYNNPTRIRTKSSKEF [RRI2] | 1.41 ± 0.068
AKAGLTFPVGRVHRLLR [HTA1] | 2.03 ± 0.11
AKAVWENIIIVGGTTSI [ARP9] | 1.89 ± 0.044
AKGFYHTPMVNFESISA [SRB8] | 2.16 ± 0.06
AKITEIGSTSKRPIESG [YIL149C/MLP2] | 3.23 ± 0.084
AKKKVLDVTKEAQANLL [RPO21] | 2.41 ± 0.17
AKKNNFIEDLAPEQQVQ [UBP6] | 2.81 ± 0.073
AKLHRISPKIWCAGAGT [PUP1] | 1.93 ± 0.049
AKLNYKNLNPASSSPSS [ECM29] | 3.25 ± 0.071
AKRHRKILRDNIQGITK [HHF1] | 3.01 ± 0.094

Sequence | protein stability index
AKRIRVSHHATTFTHCE [RPB2] | 3.07 ± 0.07
AKRVENFNSSAPIADDN [DSN1] | 3.19 ± 0.084
AKSDETKQASSFSFLNR [YLR335W/NUP2] | 3.35 ± 0.069
AKTLIPSLNNKISDDEL [RPB4] | 2.98 ± 0.069
ALCKNRKCQFRTPDSIS [POP1] | 2.31 ± 0.053
ALDGDLIELLEKLDVSR [YCG1] | 3.27 ± 0.25
ALDYLIPPPMPKNQQYR [MED7] | 2.53 ± 0.08
ALEFLNTTLQDNVSFIE [REC8] | 2.95 ± 0.072
ALFQPPNFDWDLCSSVL [ROX3] | 3.08 ± 0.077
ALLIEVFTALLRLFINE [ITC1] | 2.11 ± 0.087
ALLKLSVKLKQKRLEAG [DIS3] | 1.11 ± 0.077
ALNMLPSEILHLILDKL [GRR1] | 2.37 ± 0.13
ALPDVVVKGLPDISRAV [RPO31] | 2.85 ± 0.13
ALPRGARTATVSKKWAA [RPL14A] | 2.25 ± 0.067
ALQKGLKDLMDLCDVVE [RPC19] | 3.44 ± 0.24
ALSYAALILADSEIEIS [RPP1A] | 1.8 ± 0.058
ALTNELNELKAIKDKLE [YIL149C/MLP2] | 1.35 ± 0.061
ALVAYTPTDVIGVVSLT [RRP6] | 1.96 ± 0.091
ALYPQEARLRNLTYSSG [RPB2] | 2.39 ± 0.093
AMQYVCGDSIICNTLNI [SMC1] | 1.57 ± 0.072
ANAAKRAEAKAQGVAVQ [RPL21A] | 2.55 ± 0.13
ANEEPNTENVESVPTPA [ITC1] | 2.87 ± 0.14
ANETDKRPTPPSFTFGG [YOR098C/NUP1] | 3.01 ± 0.042
ANTNSVTSMEAAREKKI [YIL149C/MLP2] | 3 ± 0.077
ANVDQISFLEPINLKFL [YMR129W/POM152] | 2.75 ± 0.057

Sequence | protein stability index
ANVIKALAFCEIGITQQ [RRP4] | 1.36 ± 0.07
ANVLDPSLRKLIESGIG [BRR2] | 1.87 ± 0.064
APMDFAIVVGWRAIIKA [FAS1] | 2.51 ± 0.086
APPQRPRFNRDNKVSPA [RPS26B] | 2.79 ± 0.1
APSLTVPPIASPQQFLR [PRE2] | 1.56 ± 0.05
AQTIGRNSKTVREFLEK [PRE6] | 2.76 ± 0.2
ARCYRYQKNKPYPKSRY [RPL10] | 2.3 ± 0.064
ARDLLTRDEKDPKRLFE [RPS9A] | 3.37 ± 0.19
ARVSPRNNVANKQPRNE [YAR002W/NUP60] | 3.29 ± 0.14
ASELANPYSSYVSQIRK [YAR002W/NUP60] | 3.22 ± 0.17
ASGLLRAYLSHSNRCIV [CSN12] | 1.85 ± 0.04
ASLTAARTAANSIYCPT [RPN6] | 2.53 ± 0.19
ASNGRNKKGRGHVKPVR [RPS26A] | 3.46 ± 0.075
ASVYPEYALPKTYNKLH [RPS26A] | 2.92 ± 0.076
ATAAESDVAKQLAALGY [RPL16A] | 2.98 ± 0.042
ATDLAGPANNPNEFMQF [PRP8] | 3.21 ± 0.063
ATDPVAAKPDNLANFSN [SWP82] | 3.27 ± 0.077
ATEPQMVLFNIYDDWLD [PRP8] | 2.28 ± 0.051
ATFLKLAAPQLVQMYIG [RPT5] | 1.31 ± 0.25
ATGISGSVSEETELFEP [ECM29] | 3.22 ± 0.083
ATLPYIKQDIPIVIIFR [RPB2] | 1.5 ± 0.063
ATMSVFLQRIDFQIDGN [RRI2] | 2.92 ± 0.081
ATQVKTDNTVDKFDFYK [RPT3] | 3.29 ± 0.12
ATSQYLKQDLKKISSFK [YGL172W/NUP49] | 2.9 ± 0.064
ATVPSAPYRKQIISNAH [YAR002W/NUP60] | 2.34 ± 0.062

Same assay, conditions: pdr5∆

Sequence | protein stability index
AGILRGYDIFLNVVLDD [SMX2] | 2.38 ± 0.06
AGKADTSIRLEGDELEN [SRB4] | 2.97 ± 0.12
AGLDEDGKGAVYSFDPV [PRE7] | 3 ± 0.2
AGRKFKSRRCDDMLYYI [POP4] | 3.06 ± 0.094
AGVVQDIGSDPTLPRSD [RPB9] | 3.2 ± 0.093
AHAQHQPSQQPQQAQQQ [GAL11] | 3.03 ± 0.037
AHELQSEDVSRDHEKDT [YIL149C/MLP2] | 2.73 ± 0.072
AHIAKNLINLSIGASIA [YCS4] | 1.37 ± 0.072
AHTASVGVVFGSGAANE [COR1] | 3.29 ± 0.084
AIIVAGVQSNGDQFLRY [PRE4] | 2.83 ± 0.073
AIPLLKVLRKFRVQSQS [NUT1] | 1.93 ± 0.079
AIPNGIHLQRFDEGTTL [RPO21] | 1.89 ± 0.11
AIQLDYSTANEYIIAAI [RPN3] | 2.09 ± 0.073
AIVPGQSISGTLELSAQ [SWP82] | 3.13 ± 0.11
AIYNNPTRIRTKSSKEF [RRI2] | 1.67 ± 0.06
AKAGLTFPVGRVHRLLR [HTA1] | 2.72 ± 0.14
AKAVWENIIIVGGTTSI [ARP9] | 2.12 ± 0.057
AKGFYHTPMVNFESISA [SRB8] | 1.84 ± 0.05
AKITEIGSTSKRPIESG [YIL149C/MLP2] | 3.07 ± 0.1
AKKKVLDVTKEAQANLL [RPO21] | 2.73 ± 0.11
AKKNNFIEDLAPEQQVQ [UBP6] | 3.15 ± 0.08
AKLHRISPKIWCAGAGT [PUP1] | 1.87 ± 0.046
AKLNYKNLNPASSSPSS [ECM29] | 3.06 ± 0.08
AKRHRKILRDNIQGITK [HHF1] | 3.44 ± 0.098
AKRIRVSHHATTFTHCE [RPB2] | 3.15 ± 0.074

Sequence | protein stability index
AKRVENFNSSAPIADDN [DSN1] | 3.32 ± 0.075
AKSDETKQASSFSFLNR [YLR335W/NUP2] | 3.39 ± 0.099
AKTLIPSLNNKISDDEL [RPB4] | 3.1 ± 0.069
ALCKNRKCQFRTPDSIS [POP1] | 2.77 ± 0.058
ALDGDLIELLEKLDVSR [YCG1] | 3.42 ± 0.2
ALDYLIPPPMPKNQQYR [MED7] | 2.58 ± 0.1
ALEFLNTTLQDNVSFIE [REC8] | 3.27 ± 0.12
ALFQPPNFDWDLCSSVL [ROX3] | 3.29 ± 0.098
ALLIEVFTALLRLFINE [ITC1] | 1.53 ± 0.076
ALLKLSVKLKQKRLEAG [DIS3] | 1.37 ± 0.085
ALNMLPSEILHLILDKL [GRR1] | 2.07 ± 0.073
ALPDVVVKGLPDISRAV [RPO31] | 2.74 ± 0.079
ALPRGARTATVSKKWAA [RPL14A] | 2.23 ± 0.065
ALQKGLKDLMDLCDVVE [RPC19] | 2.84 ± 0.28
ALSYAALILADSEIEIS [RPP1A] | 1.93 ± 0.062
ALTNELNELKAIKDKLE [YIL149C/MLP2] | 2.01 ± 0.07
ALVAYTPTDVIGVVSLT [RRP6] | 1.57 ± 0.054
ALYPQEARLRNLTYSSG [RPB2] | 2.73 ± 0.1
AMQYVCGDSIICNTLNI [SMC1] | 1.65 ± 0.065
ANAAKRAEAKAQGVAVQ [RPL21A] | 1.96 ± 0.13
ANEEPNTENVESVPTPA [ITC1] | 2.91 ± 0.11
ANETDKRPTPPSFTFGG [YOR098C/NUP1] | 3.18 ± 0.047
ANTNSVTSMEAAREKKI [YIL149C/MLP2] | 3.05 ± 0.078
ANVDQISFLEPINLKFL [YMR129W/POM152] | 2.89 ± 0.077
ANVIKALAFCEIGITQQ [RRP4] | 2 ± 0.079

Sequence | protein stability index
ANVLDPSLRKLIESGIG [BRR2] | 2.38 ± 0.071
APMDFAIVVGWRAIIKA [FAS1] | 2.66 ± 0.08
APPQRPRFNRDNKVSPA [RPS26B] | 2.45 ± 0.11
APSLTVPPIASPQQFLR [PRE2] | 1.95 ± 0.058
AQTIGRNSKTVREFLEK [PRE6] | 3.27 ± 0.29
ARCYRYQKNKPYPKSRY [RPL10] | 2.38 ± 0.065
ARDLLTRDEKDPKRLFE [RPS9A] | 3.6 ± 0.11
ARVSPRNNVANKQPRNE [YAR002W/NUP60] | 3.78 ± 0.26
ASELANPYSSYVSQIRK [YAR002W/NUP60] | 2.9 ± 0.13
ASFYSVNTEKKTIEVTA [RPN3] | 1.29 ± 0.11
ASGLLRAYLSHSNRCIV [CSN12] | 1.56 ± 0.04
ASLTAARTAANSIYCPT [RPN6] | 2.66 ± 0.1
ASNGRNKKGRGHVKPVR [RPS26A] | 3.35 ± 0.086
ASVYPEYALPKTYNKLH [RPS26A] | 2.51 ± 0.053
ATAAESDVAKQLAALGY [RPL16A] | 2.91 ± 0.056
ATDLAGPANNPNEFMQF [PRP8] | 3.35 ± 0.059
ATDPVAAKPDNLANFSN [SWP82] | 3.18 ± 0.084
ATEPQMVLFNIYDDWLD [PRP8] | 2.15 ± 0.047
ATGISGSVSEETELFEP [ECM29] | 3.16 ± 0.054
ATLPYIKQDIPIVIIFR [RPB2] | 1.2 ± 0.049
ATMSVFLQRIDFQIDGN [RRI2] | 2.99 ± 0.066
ATQVKTDNTVDKFDFYK [RPT3] | 2.98 ± 0.11
ATSQYLKQDLKKISSFK [YGL172W/NUP49] | 2.56 ± 0.064
